# Test system: MS2 coat protein
# Assay: apparent KD of MS2 coat protein; higher = weaker reporter binding
# Settings: Eterna round: R107
# Outline: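 Designed RNA switches were made by on-chip transcription from Illumina sequencing clusters and then titrated with SNAP-549-labelled MS2 coat protein. Twofold steps ran from 0.7 or 1.5 nM to 3 µM, each lasting 0.8–1.5 h early and 10–20 min late, in 100 mM Tris-HCl pH 7.5, 80 mM KCl, 4 mM MgCl2, without or with constant ligand. Apparent KD is the per-design median of normalised cluster binding-curve fits.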
# [1] = input ligand: theophylline 20 uM
# [2] = input ligand: theophylline 2 mM
# [3] = input ligand: tryptophan 2.4 mM
Sequence,apparent KD of MS2 coat protein (input ligand: arginine 13.2 mM) [nM],apparent KD of MS2 coat protein (input ligand: none) [nM],apparent KD of MS2 coat protein [1] [nM],apparent KD of MS2 coat protein [2] [nM],apparent KD of MS2 coat protein [3] [nM]
CACAUGAGGAUCACCCAUGUCUGAACUGAAGGAGCGCUAAAUAAGGCAGGUAGGUCGCGGAAUUUUGUGUGCAUAUGCACAUGGG [9.P],17.2,27.9,30.7,26.9,23.9
CAUAUAUAAGCGGCCGCCACUUACUCAUGAGGUAACAACAUGAGGAUCACCCAUGUUUGAGGAUCAAGGACCGGGCUUAUAUAUG [AstrosSSTryB#5],27,–,27.3,28.5,–
CAUGAGAGAUUGUUUUGUGACUCUAACGAUACCAGAGUAGGACUUCUCCCUUGGCAGCGUGUGACAUGAGGAUCACCCAUGUCCA [theeternabot_exclusion_MS2_Theo_A_5],11.8,–,12.9,–,11.3
CCCAGUCAUAGCAAAGCAAAUAUACUCGAAGGAGCGUCAUAGUAGGCAGGUAGGUCGCGAGACAUGAGGAUCACCCAUGUAGAGA [ooomullin],35.6,39.7,46.7,57.8,41.3
CCGGCCAGGGCGGCCGCCACUGAACGUGGAAGAAAGAAAACAUGAGGAUCACCCAUGUAAAUCCUCAGGACCGGGCCAGGGCCGG,42.3,57.8,71,67,17.8
CCGUCACAUGAGGAUCACCCAUGUGCGGAAGGAGCGGACGACAGUCCAGGUAGGUCGCCGUAUAGCCAAUGACCAGCAGUGUCGG [Betesotiqu],5.9,10.6,20.8,9.93,13.9
CCGUCCCUCGGAAGGAGCGGCGCAAUGUAAGGGACCUUUUAUACAUGAGGAUCACCCAUGUGCCAGGUAGGUCGCCGAGAGCGUG [Erxeatge],79.5,77.2,74,145,140
CCGUUUUAUGGCGACAUAGGGCGGACUGAAGGAGCGGUAAAACAGCCAGGUAGGUCGCAGAGAUCCACAUGAGGAUCACCCAUGU [!0.aC],35.7,39.1,43.2,51.2,37.9
CCUAUCCAGUCGGCCGCCACUGACCAUUUGGAACAGUGGGUGAAUACAUGAGGAUCACCCAUGUACAGGACCGGGACUGUAUAGG [Ex Tryptophan B 21],14.4,11.2,13.1,10.4,27.9
CCUAUGCAGUCGGCCGCCACUGAACAUGAGGAUCACCCAUGUAAUUAAAAUUAUGAUCCUGAAAUCAGGACCGGGACUGUAUAGG [Ex Tryptophan B 5],28.6,–,165,431,–
CCUCAAUAGACGGCCGCCACUGAAUCAUGCGGAUACAUGAGGAUCACCCAUGUGGGUGUGGUACGCAGGACCGGGUCAAGACCCG [#13 Same State - Tryptophan B],278,145,454,1860,149
CCUCAAUAGACGGCCGCCACUGAGACAUGAGGAUACAUGAGGAUCACCCAUGUGGGUGUGUCACGCAGGACCGGGUCAAGACCCG [Tryp B SS t2],183,–,497,794,–
CCUCAUGAACAUGAGGAUCACCCAUGUACACGAGGACCGGUACGGCCGCCACUCGAAUAACCUAAAUAUAAAUAAUAAUAAUAGG [5' end split MS2],14.6,–,20.1,18.1,–
CCUUACGUUGGGCAGCCAGUUCGAAGUGAUACCAGUCACAAAAGUGACCCUUGGCAGCACCGCACAUGAGGAUCACCCAUGUCUA [SSThA NP+V+V2 #8 Same Structure],36.4,34.8,55.1,63.3,62.8
CGAAUAUAGACGGCCGCCACUCUACAAACAUGAGGAUCACCCAUGUUCACAUAGAGGAAACUCAUGAGGACCGGGUCAUAGGCUU [#20 Same State - Tryptophan B],23.5,–,32.5,27.4,–
CGAUCCUGCAGGGAUACCAGCGCCGCUUGAUAACUGUGCACAUGAGGAUCACCCAUGUAGCGCCCUUGGCAGCCCAGCUAGAGGG [Same State Theophylline B GF25],12.9,15,29.2,13.9,14.7
CGCACAUGAGGAUCACCCAUGUGAGGGCGGCGAGGACCGGUACGGCCGCCACUCGCAGGACAUGAGGAUCACCCAUGUGCCGCCG [SSTA DOUBLE!!! :-D],32.5,548,397,501,351
CGGCCCUCACGUGAGGAUCACCCACGUGAUACCAGCCUGGAAACAGGCCCUUGGCAGCACUAGGUCAUCAAAGAUGACCAAGCCG [TheoAX 27 #OpenEnded #AlternativeMS2],11.8,10.7,14.1,18.9,11.3
CGGUCGGUCGGUCGGUGAGUAUGGGAUGAAGGAGCGUGGGAAGCUACAGGUAGGUCGCAUCCGGGACAUGAGGAUCACCCAUGUU [#19 Same State - Arginine A],19.8,27.7,43.3,41.7,25.1
CGGUUUGUGAUGGAUACCAGCAGAGUGACUGUUUAUCCUGACAUGAGGAUCACCCAUGUGUGCCCUUGGCAGCUGUUGUGGGCUG [8.aA],66.3,–,111,–,65.7
CGGUUUGUGAUGGAUACCAGCAGAGUGGCUGUUUAUCCUGACAUGAGGAUCACCCAUGUGUGCCCUUGGCAGCUGUUGUGGGCUG [8.aB],85.8,86.8,137,108,74.4
CGUCGAAACUGAAGGAGCGAGAUAACAACAUUGGGUCUCAACAUGAGGAUCACCCAUGUAUCUCAGGUAGGUCGCGGUGUCACCG [Exclusion Arginine B GF19],176,202,267,429,217
CGUCGAGACUGAAGGAGCGAGAUAACAACAUUGGGUCUCAACAUGAGGAUCACCCAUGUAUCUCAGGUAGGUCGCGGUGUCACCG [Exclusion Arginine B GF20],137,330,302,484,298
CUACAUUUGUAGAAACCGGUCACCAUUAUUCGAGGACCGGUACGGCCGCCACUCGUAUCAUGUGAUACAUGAGGAUCACCCAUGU [Tryptophan A 9],27.3,–,33.7,45.5,–
CUAUAAAUAGCGGCCGCCACUUACUCAUGAGGUAACAACAUGAGGAUCACCCAUGUUUGAGGAUCAAGGACCGGGCUAUUUAUAG [AstrosSSTryB#8],23.7,–,32.8,36.1,–
CUAUAUGGAAACAUAUAGAAGCGAAAGCAACGAGGACCGGUACGGCCGCCACUCGAAGAGUGGUGGACAUGAGGAUCACCCAUGU [Design 3],40.8,–,71.6,99.6,–
CUAUGCAGGUCGGCCGCCACUACACACAUGAGGAUCACCCAUGUAGUUACUGGGUGAAGUGGCAGUAGGACCGGGACCUGCAUAU [Brourdmod07],273,–,534,799,–
CUCUGAGUGAGCAAUCACUCAGAGGCGGAUACCAGCGAGGUCCAUCGCCCUUGGCAGCCGAACAUGAGGAUCACCCAUGUCGGUA [#1 Same State - Theophylline A Attempt #22 (HarryS)],9.29,–,13,–,11
CUGACAUGAGGAUCACCCAUGUACACUGAAGGAGCGUCGAGAAUGACAGGUAGGUCGCAGAAUAAUAAUGGUGAUGUUUAGGUAA [Exclusion Arginine A GF 2],24,20.8,34.1,26.3,23.4
CUGGACAUGAGGAUCACCCAUGUAAAUCCUCGAGGACCGGUACGGCCGCCACUCGAACGAGUGGCGCGCGAGUGCGCACUCGCGC [aKa],43.6,41.4,66.9,49.3,28.3

# From the supplement of paper PMC9170038
